Test results: the supplement of paper PMC10065799, “High-throughput profiling of sequence recognition by tyrosine kinases and SH2 domains using bacterial peptide display” (eLife, 2023)

The sequences below were run against MERTK (UniProt Q12866) (assay: phosphorylation enrichment, bacterial display (enrichment ratio); higher = better substrate or ligand; peptides without Tyr show the background).
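For SH2 binding enrichment of the phosphorylated peptide, bacterial display in this document: peptide library displayed on the E. coli surface as eCPX fusions, selected cells deep-sequenced, score is each peptide's frequency after selection divided by its frequency in the input.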
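For phosphorylation enrichment, bacterial display in this document: 11-residue human phosphosite peptides and single-mutation variants displayed on the E. coli surface, counted by deep sequencing, each peptide's frequency after selection divided by its frequency in the unselected input library; frequency after pTyr selection over input frequency; kinase dosed for 20-30% of maximal phosphorylation in three min.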

MERTK, sequence (Q12866 whole entry, looked up, the tested form may be a part): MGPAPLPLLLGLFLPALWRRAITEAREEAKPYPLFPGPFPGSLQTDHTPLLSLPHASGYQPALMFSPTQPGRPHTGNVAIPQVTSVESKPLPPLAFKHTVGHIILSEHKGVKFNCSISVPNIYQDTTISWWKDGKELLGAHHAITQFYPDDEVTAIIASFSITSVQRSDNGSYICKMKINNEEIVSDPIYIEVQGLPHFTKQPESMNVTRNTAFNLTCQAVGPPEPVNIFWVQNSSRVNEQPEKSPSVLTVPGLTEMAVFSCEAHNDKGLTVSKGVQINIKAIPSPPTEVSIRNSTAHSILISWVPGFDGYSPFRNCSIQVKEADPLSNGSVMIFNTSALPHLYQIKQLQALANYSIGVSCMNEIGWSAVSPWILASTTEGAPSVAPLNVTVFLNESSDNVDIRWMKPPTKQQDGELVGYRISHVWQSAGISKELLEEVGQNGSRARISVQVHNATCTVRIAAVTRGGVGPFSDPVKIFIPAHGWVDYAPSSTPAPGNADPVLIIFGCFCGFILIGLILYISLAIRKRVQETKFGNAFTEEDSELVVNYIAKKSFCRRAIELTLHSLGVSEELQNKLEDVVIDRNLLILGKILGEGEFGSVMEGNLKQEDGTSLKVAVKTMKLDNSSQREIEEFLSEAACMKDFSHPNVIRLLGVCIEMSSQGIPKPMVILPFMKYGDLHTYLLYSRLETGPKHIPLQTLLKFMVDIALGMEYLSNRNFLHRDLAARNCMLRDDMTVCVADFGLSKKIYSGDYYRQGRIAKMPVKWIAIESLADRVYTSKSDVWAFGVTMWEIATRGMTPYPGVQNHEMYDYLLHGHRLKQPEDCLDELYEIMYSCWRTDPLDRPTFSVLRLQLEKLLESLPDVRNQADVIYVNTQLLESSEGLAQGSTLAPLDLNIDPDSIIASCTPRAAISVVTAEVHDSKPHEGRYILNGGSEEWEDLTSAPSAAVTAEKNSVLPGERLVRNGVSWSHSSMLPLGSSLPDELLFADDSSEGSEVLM

Row | Sequence | phosphorylation enrichment
1 | ILLAGYLVMVI [SLC28A3_Y113] | 0.498
2 | KLNNEYLELNY [MME_Y497] | 0.449
3 | FGSGNYNVFGN [HNRNPA2B1_Y300_D302V_YF] | 0.406
4 | ADLLDYIKALN [HPRT1_Y81] | 0.48
5 | EPSVPYRGMVF [GLI3_Y104_T107M] | 0.432
6 | FALAEYTEVKT [ALDH1A3_Y497_YF] | 0.45
7 | ERIEFYELNKK [PMM2_Y145_D148N] | 0.506
8 | VNLVLHLSIAK [FBXO15_Y496_Y496H] | 0.391
9 | SGDVQYRSSVR [FREM2_Y2158_T2153S] | 0.348
10 | LDFNEYVRDLN [HPRT1_Y198_F199V_YF] | 0.556
11 | DNLSNYVFQGQ [GRIN2A_Y978_N976S] | 0.618
12 | AEFGLYRAMVR [VSX2_Y222_G223R_YF] | 0.843
13 | HGVSSYDTIIS [LDLR_Y465_V468I] | 0.797
14 | RNGNRYFKGIV [DCX_Y64_D62N] | 0.701
15 | LPPREYVVVPS [CAPN1_Y494_G492R] | 0.631
16 | RLLCEYQELMN [KRT75_Y434_R432C] | 0.369
17 | SDVNKYSTAFG [GJB3_Y16_G12D] | 0.393

Row | Sequence | phosphorylation enrichment
18 | LEISPYMLSGR [LRRK2_Y1718] | 0.588
19 | SSYDIYHLSRE [KIR3DL2_Y253] | 6.05
20 | CTTIHYMYMCN [TP53_Y234_N235M] | 0.34
21 | LTYHMYADPNI [SOS1_Y618_F623I] | 3.73
22 | RLGNQYVNVMN [SLC3A1_Y461] | 0.352
23 | PFRKLYESVKK [MKI67_Y241_W238R] | 0.612
24 | ISSLCYELLEE [TRPC6_Y896_R895C] | 0.777
25 | ALERPYTSKHS [NANS_Y71] | 0.442
26 | SNPAYYVLEGV [INPPL1_Y987_N982S] | 7.46
27 | RILDVYIFLGP [GAA_Y340_G335R] | 0.492
28 | WHHIFYNELRV [ACTG1_Y91_T89I] | 0.444
29 | DNKALYDICFR [TUBB3_Y208_E205K] | 7.18
30 | DPADRYLTEQY [CDKL5_Y286_C291Y] | 0.402
31 | GCKNHYDKDKP [THAP1_Y14_R13H] | 0.504
32 | EKDSNYCLCRT [ASIC2_Y357] | 0.601
33 | PATYTYDEYKK [COL8A2_Y648] | 1.02

Each sequence was assayed against Grb2 SH2 (UniProt P62993) (assay: SH2 binding enrichment of the phosphorylated peptide, bacterial display (enrichment ratio); higher = better substrate or ligand; peptides without Tyr show the background).

Row | Sequence | SH2 binding enrichment
34 | FGSGNYNVFGN [HNRNPA2B1_Y300_D302V_YF] | 0.766
35 | ADLLDYIKALN [HPRT1_Y81] | 0.786
36 | EPSVPYRGMVF [GLI3_Y104_T107M] | 0.804
37 | FALAEYTEVKT [ALDH1A3_Y497_YF] | 0.861
38 | VNLVLHLSIAK [FBXO15_Y496_Y496H] | 0.652
39 | SGDVQYRSSVR [FREM2_Y2158_T2153S] | 0.812
40 | LDFNEYVRDLN [HPRT1_Y198_F199V_YF] | 1.13
41 | DNLSNYVFQGQ [GRIN2A_Y978_N976S] | 0.904
42 | HGVSSYDTIIS [LDLR_Y465_V468I] | 0.546
43 | RNGNRYFKGIV [DCX_Y64_D62N] | 0.602
44 | LPPREYVVVPS [CAPN1_Y494_G492R] | 0.918
45 | RLLCEYQELMN [KRT75_Y434_R432C] | 0.618
46 | SDVNKYSTAFG [GJB3_Y16_G12D] | 0.777
47 | LEISPYMLSGR [LRRK2_Y1718] | 0.9
48 | SSYDIYHLSRE [KIR3DL2_Y253] | 0.842
49 | PFRKLYESVKK [MKI67_Y241_W238R] | 0.973
50 | SNPAYYVLEGV [INPPL1_Y987_N982S] | 0.891
51 | RILDVYIFLGP [GAA_Y340_G335R] | 0.746
52 | WHHIFYNELRV [ACTG1_Y91_T89I] | 0.701
53 | DPADRYLTEQY [CDKL5_Y286_C291Y] | 1
54 | EKDSNYCLCRT [ASIC2_Y357] | 0.976
55 | PATYTYDEYKK [COL8A2_Y648] | 0.551

The next lines start with the values.

Row | SH2 binding enrichment | Sequence
56 | 0.729 | ILLAGYLVMVI [SLC28A3_Y113]
57 | 0.931 | KLNNEYLELNY [MME_Y497]
58 | 0.822 | ERIEFYELNKK [PMM2_Y145_D148N]
59 | 0.89 | AEFGLYRAMVR [VSX2_Y222_G223R_YF]
60 | 0.998 | CTTIHYMYMCN [TP53_Y234_N235M]
61 | 0.71 | LTYHMYADPNI [SOS1_Y618_F623I]
62 | 15.4 | RLGNQYVNVMN [SLC3A1_Y461]
63 | 0.843 | ISSLCYELLEE [TRPC6_Y896_R895C]
64 | 0.866 | ALERPYTSKHS [NANS_Y71]
65 | 0.739 | DNKALYDICFR [TUBB3_Y208_E205K]
66 | 1.11 | GCKNHYDKDKP [THAP1_Y14_R13H]

The sequences below were run against c-Src SH2 in the same assay as above.

Row | Sequence | SH2 binding enrichment
67 | FGSGNYNVFGN [HNRNPA2B1_Y300_D302V_YF] | 0.682
68 | ADLLDYIKALN [HPRT1_Y81] | 0.468
69 | EPSVPYRGMVF [GLI3_Y104_T107M] | 0.414
70 | FALAEYTEVKT [ALDH1A3_Y497_YF] | 1.9
71 | VNLVLHLSIAK [FBXO15_Y496_Y496H] | 0.351
72 | SGDVQYRSSVR [FREM2_Y2158_T2153S] | 0.514
73 | LDFNEYVRDLN [HPRT1_Y198_F199V_YF] | 0.617
74 | DNLSNYVFQGQ [GRIN2A_Y978_N976S] | 0.601
75 | HGVSSYDTIIS [LDLR_Y465_V468I] | 10.6
76 | RNGNRYFKGIV [DCX_Y64_D62N] | 0.509
77 | LPPREYVVVPS [CAPN1_Y494_G492R] | 1.17
78 | RLLCEYQELMN [KRT75_Y434_R432C] | 0.54
79 | SDVNKYSTAFG [GJB3_Y16_G12D] | 0.617
80 | LEISPYMLSGR [LRRK2_Y1718] | 0.781
81 | SSYDIYHLSRE [KIR3DL2_Y253] | 0.73
82 | PFRKLYESVKK [MKI67_Y241_W238R] | 0.714
83 | SNPAYYVLEGV [INPPL1_Y987_N982S] | 3.28
84 | RILDVYIFLGP [GAA_Y340_G335R] | 0.534
85 | WHHIFYNELRV [ACTG1_Y91_T89I] | 0.512
86 | DPADRYLTEQY [CDKL5_Y286_C291Y] | 0.429
87 | EKDSNYCLCRT [ASIC2_Y357] | 0.778
88 | PATYTYDEYKK [COL8A2_Y648] | 1.48

More lines, now with the values ahead:

Row | SH2 binding enrichment | Sequence
89 | 0.502 | ILLAGYLVMVI [SLC28A3_Y113]
90 | 0.553 | KLNNEYLELNY [MME_Y497]
91 | 0.467 | ERIEFYELNKK [PMM2_Y145_D148N]
92 | 0.633 | AEFGLYRAMVR [VSX2_Y222_G223R_YF]
93 | 1.06 | CTTIHYMYMCN [TP53_Y234_N235M]
94 | 8.46 | LTYHMYADPNI [SOS1_Y618_F623I]
95 | 2.79 | RLGNQYVNVMN [SLC3A1_Y461]
96 | 0.701 | ISSLCYELLEE [TRPC6_Y896_R895C]
97 | 0.6 | ALERPYTSKHS [NANS_Y71]
98 | 0.541 | DNKALYDICFR [TUBB3_Y208_E205K]
99 | 0.845 | GCKNHYDKDKP [THAP1_Y14_R13H]

The sequences below were run against SHP2-C SH2 in the same assay as above.

Row | Sequence | SH2 binding enrichment
100 | FGSGNYNVFGN [HNRNPA2B1_Y300_D302V_YF] | 0.805
101 | ADLLDYIKALN [HPRT1_Y81] | 0.607
102 | EPSVPYRGMVF [GLI3_Y104_T107M] | 0.567
103 | FALAEYTEVKT [ALDH1A3_Y497_YF] | 0.506
104 | VNLVLHLSIAK [FBXO15_Y496_Y496H] | 0.511
105 | SGDVQYRSSVR [FREM2_Y2158_T2153S] | 0.883
106 | LDFNEYVRDLN [HPRT1_Y198_F199V_YF] | 0.795
107 | DNLSNYVFQGQ [GRIN2A_Y978_N976S] | 0.818
108 | HGVSSYDTIIS [LDLR_Y465_V468I] | 0.546
109 | RNGNRYFKGIV [DCX_Y64_D62N] | 0.726
110 | LPPREYVVVPS [CAPN1_Y494_G492R] | 1.03
111 | RLLCEYQELMN [KRT75_Y434_R432C] | 0.566
112 | SDVNKYSTAFG [GJB3_Y16_G12D] | 0.553
113 | LEISPYMLSGR [LRRK2_Y1718] | 0.722
114 | SSYDIYHLSRE [KIR3DL2_Y253] | 0.816
115 | PFRKLYESVKK [MKI67_Y241_W238R] | 0.711
116 | SNPAYYVLEGV [INPPL1_Y987_N982S] | 1.19
117 | RILDVYIFLGP [GAA_Y340_G335R] | 0.595
118 | WHHIFYNELRV [ACTG1_Y91_T89I] | 0.638
119 | DPADRYLTEQY [CDKL5_Y286_C291Y] | 0.944
120 | EKDSNYCLCRT [ASIC2_Y357] | 0.789
121 | PATYTYDEYKK [COL8A2_Y648] | 0.799

The next lines start with the values.

Row | SH2 binding enrichment | Sequence
122 | 0.781 | ILLAGYLVMVI [SLC28A3_Y113]
123 | 0.783 | KLNNEYLELNY [MME_Y497]
124 | 0.492 | ERIEFYELNKK [PMM2_Y145_D148N]
125 | 0.789 | AEFGLYRAMVR [VSX2_Y222_G223R_YF]
126 | 2.59 | CTTIHYMYMCN [TP53_Y234_N235M]
127 | 1.41 | LTYHMYADPNI [SOS1_Y618_F623I]
128 | 2.03 | RLGNQYVNVMN [SLC3A1_Y461]
129 | 0.769 | ISSLCYELLEE [TRPC6_Y896_R895C]
130 | 0.529 | ALERPYTSKHS [NANS_Y71]
131 | 0.641 | DNKALYDICFR [TUBB3_Y208_E205K]
132 | 0.928 | GCKNHYDKDKP [THAP1_Y14_R13H]
